# Laboratory results reported in the nanobody polyreactivity screen of Harvey et al. (2022).
# Test: yeast display, Sf9 membrane polyspecificity reagent, FACS + sequencing; frameworks hold sequencing errors
# Outline: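 Using colony PCR, genes from sorted yeast display clones were amplified, then sequenced on MiSeq at 2 × 250 and filtered by CDR length. The clones had been stained with 10% biotinylated, detergent-solubilized Sf9 membrane reagent for 1 hour at 4 °C and sorted by FACS into low and high (top ~1%) gates on anti-HA and streptavidin fluorescence. Polyreactivity labels come from the gate of origin.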
row,Sequence,polyreactivity (PSR sort gate)
1,QVQLVESGGGLVQAGGSLRLSCAASGITFQRYVLGWYRQAPGKERELVAAISFTASSTYYADSVKGRFTISRDYAKKTVYLQMNSLKPEDTAVYYCAADGSVPKYVPYPRYYGYGYWGQGTQVTVSS,high polyreactivity
2,QVQLVESGGGLVQAGGSLRLSCAASGITFQYYAMGWYRQAPGKERELFARISSSGGRTFYADSVKGRFTISRDNAKNTVYLQMNSLKQEDTAVYYCAAGSLSLSNSTVWFEYDYWGQGTQVSVSS,high polyreactivity
3,QVQLVESGGGLVQAGGSLRLSCAASGITFQYYAMGWYRQAPGKERELVAAISSGGSTYYADSVKGRFTISRDNAKNTVYLQMNSLKPEDTAVYYCAAKRVFFGLNYDYWGQGTQVTVSS,high polyreactivity
4,QVQLVESGGGLVQAGGSLRLSCAASGITFRANAKGWYRQAPGKERELVAAISARGGSTYYADSVKGRFTISRDNAKNTVYLQMNSLNPEDTAVYYCAKELSQGMRYDYWGQGTQVTVSS,high polyreactivity
5,QVQLVESGGGLVQAGGSLRLSCAASGITFRAYVMGWYRQEPGKERELVAAINRRGGSTYYADSVKGRFTISRDNAKNTVYLQMNSLKPEDTAVYYCAAGLYSTGYTYDYWGQGTQVTVSS,high polyreactivity
6,QVQLVESGGGLVQAGGSLRLSCAASGITFRGYAMGWYRQAPGKERELVAAITGSGTSTYADSVKGRFTISRGNAKNTVYLQMNSLKPEDTAVYYCAADTYDPFYYGYGYWGQGTQVTVSS,low polyreactivity
7,QVQLVESGGGLVQAGGSLRLSCAASGITFRGYAMGWYRQAPGKERELVASITNTDSTYYADSVKGRFTISRDNAKNTVYLQMNSLKPEDTAVYYCNAEADPYSVDYDYWGQGTQVTVSS,high polyreactivity
8,QVQLVESGGGLVQAGGSLRLSCAASGITFRKYVMGWYRPAPGKERELVAAITRGGSTNYADSVKGRFTISRDNAKNTVYLQMNSLKPEDTAVYYCATRQSWYPRWMDYWGQGTQVTVSS,high polyreactivity
9,QVQLVESGGGLVQAGGSLRLSCAASGITFRLYAMGWYRQAPGKERELVAAISKRGGSTYYADSVKGRFTISRDNAKNTVYLQMNSLKPEDTAVYYCAADSGWEHRYDYWGQGTQVTVSS,high polyreactivity
10,QVQLVESGGGLVQAGGSLRLSCAASGITFRNYAMVWSRQAPGKERELVADITTGGSTYADSVKGRFTISRDNAKNTVYLQMISLNPEDTAVYYCAADRDFRTPRLYYWGQGTQVTVSS,low polyreactivity
11,QVQLVESGGGLVQAGGSLRLSCAASGITFRQYAMGWYRQAPGKERELVAVITSRGGTTYYAVSVKGRFTISRDNAKNTVYLQMNSLKPEDTAVYYCAARYPSYDFYYWGQGTQVTVSS,high polyreactivity
12,QVQLVESGGGLVQAGGSLRLSCAASGITFRRKAMGWYRQAPGKERELVAAISASGTRTYYADSVKGRLTISRDNAKNTVYLQMNSLKPEDTAVYYCATRVTSRSSGFDYWGQGTQVTVSW,high polyreactivity
13,QVQLVESGGGLVQAGGSLRLSCAASGITFRRYAMGWYRPAPGKERELVAVISVSGGRTHYADSVKGRFTISRDNAKNTVYLQMNSLKPEDTAVYYCAAQFSYRYYTDEVGYWGQGTQVTVSS,high polyreactivity
14,QVQLVESGGGLVQAGGSLRLSCAASGITFRRYAMGWYRQAPGKERELVASITSNGGSTYYADSVKGRFTISRDTAKNTVYLQMNSLKPEDTAVYYFAADFAVGQWLTQTSVEYDYWGQGTQLTVSS,high polyreactivity
15,QVQLVESGGGLVQAGGSLRLSCAASGITFRRYAMGWYRQAPGKERELVAVISVSGGRTHYADSVKGRFTISRDNAKNTVYLQMNSLKPEDTAVYYCAAQFSYRYYTDEVGYWGQGTQVTVSS,high polyreactivity
16,QVQLVESGGGLVQAGGSLRLSCAASGITFRSYAMGWYRQAPGKERELVAAIRSGGSTSYADSVKGRFTISRDNAKTTVYLQMNSLKPEDTAVYYCAAGGYVPLPDITFWKFGYWGQGTQVTVSS,low polyreactivity
17,QVQLVESGGGLVQAGGSLRLSCAASGITFRSYAMGWYRQAPGKERELVAAISSTGRTYYADSVKGRFTISRDNAKNTVYLQMNSLKPEDTAGYYCNAKRYIWGQGTQVTVSS,high polyreactivity
18,QVQLVESGGGLVQAGGSLRLSCAASGITFRVYAMGWYRQAPGKERELVADISGTGGSTYYADSVKGRFTISRDYAKNTVYLQMNSLKPEDTAVYYCAAVYGFYYSFLQDSYGYWGQGTQVTVSS,low polyreactivity
19,QVQLVESGGGLVQAGGSLRLSCAASGITFRWNAMGWYRQAPGKERELVAAITTRGGGTYYADSVKGRFTISRDNAKNTVYLQMNSLKPEDTAVYYCGAKKSRYPYNYWGQGTQVTVSS,high polyreactivity
20,QVQLVESGGGLVQAGGSLRLSCAASGITFRYYAMGWSRQAPWKERELVAVISSTGITNYADSVKGRFTISRDNAKNTVYLQMNSLKPEDTAVYYCAAGLWYSYDYWGQGTQVTVSS,high polyreactivity
21,QVQLVESGGGLVQAGGSLRLSCAASGITFRYYAMGWYRQAPGKERELVAAISIRGRTYYADSVKGRFTISRDNAKNTVYLQMNSLKPEDTAVYYCAAVKRVVAFDYWGQGTQVTVSS,low polyreactivity
22,QVQLVESGGGLVQAGGSLRLSCAASGITFRYYTMGWYRQAPGKERELVAAISSSGGSTYYADSVKGRFTISRDNAKNTVYLQMNSLKPEDTAVYYCAAESKYATSSPRRDYWGQGTQVTVSS,high polyreactivity

row,Sequence,polyreactivity (PSR sort gate)
1,QVQLVESGGGLVQAGGSLRLSCAASGITFSDNTMGWYRQAPGKERELVAAISWRGGLTYYADSVKGRFTISRDNAKNTVYLQMNSVKPEDTAVYYCIAVTSSKARYSSYDYWGQGTQVTVSS,high polyreactivity
2,QVQLVESGGGLVQAGGSLRLSCAASGITFSFYTMGWYRQAPGKERELVAAMTQDGGSTYYADSVKGRFTISRDNAKNTVYLQMNSLKPEDTAVYYCASDLVVFVQFDVAVDYYYWGQGTQVTVSS,low polyreactivity
3,QVQLVESGGGLVQAGGSLRLSCAASGITFSHNAMGWYRQAPGKERELVAVIRWSGGRTYYADSVKGRFTISRDNAKNTVYLQMNSLKPEDTAVYYCAARPSTAFPYGKIMDYWGQGTQVTVSS,low polyreactivity
4,QVQLVESGGGLVQAGGSLRLSCAASGITFSNSAMGWYRQAPGKERELVASITRRGTRTYYADSVKGRFTISRDNAKNTVYLQMNSLKPEDTAVYYCNRSFYSWIDLIYGGYDYWGQGTQVTVSS,high polyreactivity
5,QVQLVESGGGLVQAGGSLRLSCAASGITFSRNAMGWYRQAPGTDRELGAVISTRGGRTYYADSVKGRFTISRDNAKNTVYLQMNSLKPEDTAVYYCAASPDPYWRRMDYWGQGTQVTVSS,high polyreactivity
6,QVQLVESGGGLVQAGGSLRLSCAASGITFSRYAMGWYRQAPGKERELVAAISSGGSTYYADSVKGRFTISRDNAKNPVYLQMNSLKPEDTAVYYCAAVILSRWASYREYYYWGQGTQVTGSS,high polyreactivity
7,QVQLVESGGGLVQAGGSLRLSCAASGITFSSYAMGWYRQAPGKERELVAAISYGGGNTYYADSVKGRFTISRDNAKNTVYLQMNSLKPEDTAVYYCNTLYTSYSGLDYWGQGTQVTVSS,high polyreactivity
8,QVQLVESGGGLVQAGGSLRLSCAASGITFSTYAMGWYRQAPGKERELVAAINWSGGSTRYADSVKGRFTISRDNAKNTVYLQMNSLKPEDTAVYYCAAEVQGQVGEFDYWGQGTQVTVSS,low polyreactivity
9,QVQLVESGGGLVQAGGSLRLSCAASGITFSVYAMGWYRQAPGKERELVAAISGSGGSTYYADSVKGRFTISRDNAKNTVYLQMNSLKPEDTAVYYCAARLAQKYSPTRYNYWGQGTQVTVSS,high polyreactivity
10,QVQLVESGGGLVQAGGSLRLSCAASGITFSVYAMGWYRQAPGKERELVASISSGGTSTYYADSVKGRFTISRDNAKNTVYLQMNSLKPEDTAVYYCAAYSYYTGDQYSYDYWGQGTQVTVSS,low polyreactivity
11,QVQLVESGGGLVQAGGSLRLSCAASGITFSYYAMGWYRQAPGKEREFVAAINWDGGSTYYADSVKGRFTISRDNAKNTVYLQMNSLKPEDTAVYYCNADEFEYIYVDTLNYGDDYWGQGTQVTVSS,low polyreactivity
12,QVQLVESGGGLVQAGGSLRLSCAASGITFTAYAMGWYRQAPGKERELVATINSTGITNYADSVKGRFTISRDNAKNTVYLQMNSLNPEDTAVYYCAADLLDISSYDGMDYWGQGTQVTVSS,low polyreactivity
13,QVQLVESGGGLVQAGGSLRLSCAASGITFTDYAMGWYRQAPGKERELVAAISGIGSTTYYADSVKGRFTISRDNAKNTVYLQMNSLKPEDTAVYYCNALLAYTYWYDYWGQGTQLTVSS,high polyreactivity
14,QVQLVESGGGLVQAGGSLRLSCAASGITFTDYAMGWYRQAPGKERELVAAISSSGGRTYYADSVKGRFTISRDNAKNTVYLQMNSLKPEDTAVYYCAARDYDRTQSGRDYWGQGTQVTVSS,high polyreactivity
15,QVQLVESGGGLVQAGGSLRLSCAASGITFTENLMGWYRQAPGKERELVAGISRSGGITYFADSVKGRFTISRDNAKNTVYLQMNSLKPEDTSVYYCAADFYASYSPYYYWGQGTQVTVSS,high polyreactivity
16,QVQLVESGGGLVQAGGSLRLSCAASGITFTFNAMGWYRQAPGKERELVAAISSTTSTKYADSVKGRFTISRDNAKTTVYLQMNSLKPEDTAVYYCARTYWLRYYGYRDDEYDYWGQGTQVTVSS,low polyreactivity
17,QVQLVESGGGLVQAGGSLRLSCAASGITFTFNAMGWYRQAPGKERELVAAITWSGGSTFYADSVKGRFTISRDNAKNTVDLQMNSLKPEDTAVYYCARDTELYVRWLDYWGQGTQVTVSS,low polyreactivity
18,QVQLVESGGGLVQAGGSLRLSCAASGITFTFNAMGWYRQAPGKERELVAAITWSGGSTFYADSVKGRFTISRDNAKNTVYLQMNSLKPEDTAVYYCARDTELYVRWLDYWGQGTQVSVSS,low polyreactivity
19,QVQLVESGGGLVQAGGSLRLSCAASGITFTFYAMGWYRQAPGKERELVATIDSGGSTNYADSVKGRFTISRDNAKNTVYLQMNSLKPEDTEVYYCAADGVWYYYDMDYWGQGTQVTVSS,low polyreactivity
20,QVQLVESGGGLVQAGGSLRLSCAASGITFTGYAMGWYRQAPGKERELVAAITSGGGRTYYADSVKGRFTISRDNAKNTVYLQMNSLKPEDTAVYYCAFRYHGYDYWGQGTQVTVSS,high polyreactivity
21,QVQLVESGGGLVQAGGSLRLSCAASGITFTPNAMGWYRPAPGKEREFVAAITYSGGSTYYADSVKGRFTISRDNAKNTVYLQMNSLKPEDTAVYYCAAVYYLLYYEAYYYWGQGTQVTVSS,low polyreactivity
